Measurements taken from US20160130329A1 (UNIVERSITY OF CHICAGO, published 2016).
Where a chain is given by its changes, count along the chain named. Like-named read-outs stand apart in the source and are kept apart here. Each block holds one binder with its values, some of them ahead of it. Where no end group is shown, it is not given here. [ ]: non-standard residue; d: D form. Lys(Me3) = C[N+](C)(C)CCCC[C@H](N)C(=O)O

How the values were obtained:
H3K4me3 peptide [1] = target: T1, H3K4me3 peptide (also: biotinylated, site not given here); experiment: phage ELISA
T1 peptide: ART[Lys(Me3)]QTARKSTGGYCD

H3K36me3 peptide [2] = target: T2, H3K36me3 peptide (K(me3) at H3 K36; K(biotin) near the C-terminus, as printed: SAPATGGVK-K(me3)-PHRYRPGG-K(biotin)-D); experiment: phage ELISA
T2 peptide: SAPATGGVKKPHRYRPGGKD

H3K4me3 peptide [3] = target: T1, H3K4me3 peptide; experiment: yeast display, flow cytometry [A]
H3K27me3 peptide [4] = target: T3, H3K27me3 peptide (trimethyl-lysine at K27 (histone H3 numbering); biotinylated through the GYCD tag); experiment: yeast display, flow cytometry [A]
T3 peptide: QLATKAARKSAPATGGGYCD

H3K36me3 peptide [5] = target: T2, H3K36me3 peptide; experiment: yeast display, flow cytometry [B]
H3K27me3 peptide [6] = target: T3, H3K27me3 peptide; experiment: yeast display, flow cytometry [B]
H3K4me3 peptide [7] = target: T1, H3K4me3 peptide; experiment: yeast display, flow cytometry [B]
H4K20me3 peptide [8] = target: T4, H4K20me3 peptide (trimethyl-lysine at K20 (histone H4 numbering); biotinylated through the GYCD tag); experiment: phage ELISA [B]
T4 peptide: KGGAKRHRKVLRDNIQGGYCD

H3K27me3 peptide [9] = target: T3, H3K27me3 peptide; experiment: phage ELISA [B]
H4K20me3 peptide [10] = target: T4, H4K20me3 peptide; experiment: yeast display, flow cytometry [A]
H4K20me3 peptide [11] = target: T4, H4K20me3 peptide; experiment: phage ELISA [A]
H3K4me3 peptide [12] = target: T1, H3K4me3 peptide; experiment: yeast display of the scFv, peptide titration, flow cytometry
H3K4me3 peptide [13] = target: T1, H3K4me3 peptide; experiment: as above

binding result (H3K4me3 peptide [1]): no binding (tested: 100 nM peptide)
B1: 20F87 (scFv)
scFv: EVQLVETGGGVVQPGRSLRLSCTASGFTFRDYWMSWVRQAPGKGLEWVADINPDGITRYYIDAVKGRFTISRDNAKSSLYLQMNSLGAEDTAVYYCAREFYGSWHFDLWGRGTLVTVSSSYVLTQPPSVSVAPGQTARITCGGTNISHSSGDVHWYQQRPGQAPLVVVYYSYARPSGIPERFSGSNSGNTATLTISRVEAGDEADYYCQVWDDSINAYVFGTGTKVTVL

binding result (H3K36me3 peptide [2]): no binding (tested: 100 nM peptide)
B2: 27F40 (scFv)
scFv: EVQLVETGGGVVQPGRSLRLSCTASGFTFRDYWMSWVRQAPGKGLEWVADINPDGITRYYIDAVKGRFTISRDNAKSSLYLQMNSLGAEDTAVYYCAREFTNVYGWHFDLWGRGTLVTVSSSYVLTQPPSVSVAPGQTARITCGGTNISNTYVHWYQQRPGQAPLVVVYSSPARPSGIPERFSGSNSGNTATLTISRVEAGDEADYYCQVWDDSINAYVFGTGTKVTVL

binding result (H3K36me3 peptide [2]): no binding (tested: 100 nM peptide)
B3: 27F52 (scFv)
scFv: B2 scFv with T101N, S149N, N150D, P172D, A173P

binding result (H3K36me3 peptide [2]): no binding (tested: 100 nM peptide)
B4: 27F12 (scFv)
scFv: B2 scFv with V103A, S149I, N150S, S170A, S171H, P172S, A173D

binding result (H3K4me3 peptide [3]): no binding (tested: 500 nM)
binding result (H3K27me3 peptide [4]): no binding (tested: 500 nM)
B5: 36H1 (scFv)
scFv: EVQLVETGGGVVQPGRSLRLSCTASGFTFRDYWMSWVRQAPGKGLEWVADISKEGKYMYYLDAVKGRFTISRDNAKSSLYLQMNSLGAEDTAVYYCARDLNYGAGWHFDLWGRGTLVTVSSSYVLTQPPSVSVAPGQTARITCGGTNIGDISVHWYQQRPGQAPLVVVYDDSDRPSGIPERFSGSNSGNTATLTISRVEAGDEADYYCQVWDDSINAYVFGTGTKVTVL

binding result (H3K4me3 peptide [3]): no binding (tested: 500 nM)
binding result (H3K27me3 peptide [4]): no binding (tested: 500 nM)
B6: 36H2 (scFv)
scFv: B5 scFv with Y32H

binding result (H3K36me3 peptide [5]): no binding (tested: 500 nM)
binding result (H3K27me3 peptide [6]): no binding (tested: 500 nM)
B7: 20H3 (scFv)
scFv: B5 scFv with K53Q, K56S, Y57W, M58A, L100F, N101P, Y102H, A104S

binding result (H3K4me3 peptide [7]): no binding (tested: 500 nM)
binding result (H3K36me3 peptide [5]): no binding (tested: 500 nM)
binding result (H3K27me3 peptide [6]): no binding (tested: 500 nM)
B8: 20H1 (scFv)
scFv: EVQLVETGGGVVQPGRSLRLSCTASGFTFRDNWMSWVRQAPGKGLEWVADINQNGRYFYYIDAVKGRFTISRDNAKSSLYLQMNSLGAEDTAVYYCARAFQRGRGWHFDLWGRGTLVTVSSSYVLTQPPSVSVAPGQTARITCGGTNIGDISVHWYQQRPGQAPLVVVYDDSDRPSGIPERFSGSNSGNTATLTISRVEAGDEADYYCQVWDDSINAYVFGTGTKVTVL

binding result (H4K20me3 peptide [8]): no binding (tested: 100 nM peptide)
binding result (H3K27me3 peptide [9]): no binding (tested: 100 nM peptide)
B9: 4H1 (scFv)
scFv: EVQLVETGGGVVQPGRSLRLSCTASGFTFRDYWMSWVRQAPGKGLEWVADIGEHGSFSYYLDAVKGRFTISRDNAKSSLYLQMNSLGAEDTAVYYCARNFSRGYGWHFDLWGRGTLVTVSSSYVLTQPPSVSVAPGQTARITCGGTNIGDISVHWYQQRPGQAPLVVVYDDSDRPSGIPERFSGSNSGNTATLTISRVEAGDEADYYCQVWDDSINAYVFGTGTKVTVL

binding result (H3K4me3 peptide [3]): no binding (tested: 500 nM)
binding result (H4K20me3 peptide [10]): no binding (tested: 500 nM)
binding result (H3K27me3 peptide [4]): no binding (tested: 500 nM)
B10: 36H3 (scFv)
scFv: B5 scFv with I51L, S52N, E54D, M58A, L100F, N101V, Y102R, A104S

binding result (H4K20me3 peptide [8]): no binding (tested: 100 nM peptide)
B11: 4H3 (scFv)
scFv: B9 scFv with Y32N, G52A, H54D, S56K, F57A, S58M, L61I, N99V

binding result (H3K4me3 peptide [3]): no binding (tested: 500 nM)
binding result (H3K27me3 peptide [4]): no binding (tested: 500 nM)
B12: 36H5 (scFv)
scFv: B5 scFv with M34V

binding result (H4K20me3 peptide [11]): no binding (tested: 100 nM peptide)
B13: 9H3 (scFv)
scFv: B5 scFv with K53Q, E54D, K56E, Y57S, M58R, L61V, N101L, Y102S, A104Y

binding result (H4K20me3 peptide [8]): no binding (tested: 100 nM peptide)
binding result (H3K27me3 peptide [9]): no binding (tested: 100 nM peptide)
B14: 4H2 (scFv)
scFv: B9 scFv with G52S, E53K, H54D, F57A, L61V, N99D, S101V, R102S

binding result (H3K4me3 peptide [3]): no binding (tested: 500 nM)
binding result (H3K27me3 peptide [4]): no binding (tested: 500 nM)
B15: 36H4 (scFv)
scFv: B5 scFv with Y32H, L110V

binding result (H3K4me3 peptide [1]): no binding (tested: 100 nM peptide)
B16: 20F78 (scFv)
scFv: EVQLVETGGGVVQPGRSLRLSCTASGFTFRDYWMSWVRQAPGKGLEWVADINPDGITRYYIDAVKGRFTISRDNAKSSLYLQMNSLGAEDTAVYYCAREFPNNYGWHFDLWGRGTLVTVSSSYVLTQPPSVSVAPGQTARITCGGTNIDHRVPVHWYQQRPGQAPLVVVYAYSSRPSGIPERFSGSNSGNTATLTISRVEAGDEADYYCQVWDDSINAYVFGTGTKVTVL

binding result (H3K4me3 peptide [1]): no binding (tested: 100 nM peptide)
B17: 20F94 (scFv)
scFv: EVQLVETGGGVVQPGRSLRLSCTASGFTFRDYWMSWVRQAPGKGLEWVADINPDGITRYYIDAVKGRFTISRDNAKSSLYLQMNSLGAEDTAVYYCAREFPYINIWHFDLWGRGTLVTVSSSYVLTQPPSVSVAPGQTARITCGGTNIADYTTVHWYQQRPGQAPLVVVYANSARPSGIPERFSGSNSGNTATLTISRVEAGDEADYYCQVWDDSINAYVFGTGTKVTVL

binding result (H3K4me3 peptide [1]): no binding (tested: 100 nM peptide)
B18: 20F109 (scFv)
scFv: EVQLVETGGGVVQPGRSLRLSCTASGFTFRDYWMSWVRQAPGKGLEWVADINPDGITRYYIDAVKGRFTISRDNAKSSLYLQMNSLGAEDTAVYYCAREFHPGRYDWHFDLWGRGTLVTVSSSYVLTQPPSVSVAPGQTARITCGGTNISSSSVHWYQQRPGQAPLVVVYDDNYRPSGIPERFSGSNSGNTATLTISRVEAGDEADYYCQVWDDSINAYVFGTGTKVTVL

Kd (H3K4me3 peptide [12]): 5.1 µM
Kd (H3K4me3 peptide [13]): 5.1 µM
B19: scFv 4-5 (scFv)
scFv: EVQLVETGGGVVQPGRSLRLSCTASGFTFRDYWMSWVRQAPGKGLEWVADIKQDGSDKYYVDAVKGRFTISRDNAKSSLYLQMNSLGAEDTAVYYCARDFSRGSGWHFDLWGRGTLVTVSSGILGSGGGGSGGGGSGGGGSSYVLTQPPSVSVAPGQTARITCGGTNIGDISVHWYQQRPGQAPLVVVYDDSDRPSGIPERFSGSNSGNTATLTISRVEAGDEADYYCQVWDDSINAYVFGTGTKVTVL
notes: also called lead antibody; scFv 4-5 polypeptide
